# US20160311886A1, “Constructs Binding to Phosphatidylserine and Their Use in Disease Treatment and Imaging” (Board of Regents, The University of Texas System, priority 2005, published 2016)
# Where two headings read alike, the source gives them in different places.
# B1: 3G4: Mouse IgG3 kappa monoclonal antibody to PS and anionic phospholipids; binding mediated by β2-glycoprotein I (antibody, listed as Mus musculus)
# VH: MGWTWIFILILSVTTGVHSEVQLQQSGPELEKPGASVKLSCKASGYSFTGYNMNWVKQSHGKSLEWIGHIDPYYGDTSYNQKFRGKATLTVDKSSSTAYMQLKSLTSEDSAVYYCVKGGYYGHWYFDVWGAGTTVTVSSATTTAPSVYPLVP
# VL: MDMRAPAQILGFLLLLFPGTRCDIQMTQSPSSLSASLGERVSLTCRASQDIGSSLNWLQQGPDGTIKRLIYATSSLDSGVPKRFSGSRSGSDYSLTISSLESEDFVDYYCLQYVSSPPTFGAGTKLELKRADAAPTVFIFGRIP
# Columns and labels:
# [1] = Phospholipid specificity ELISA; assay type: binding
# Method: The specificity of the antibodies was determined by ELISA using plates coated with the following phospholipids: PS, phosphatidylserine; PE, phosphatidylethanolamine; PI, phosphatidylinositol; PA, phosphatidic acid; PG, phosphatidylglycerol; PC, phosphatidylcholine; CL, cardiolipin; and SM, sphingomyelin.
# [2] = test system: L540 Hodgkin tumors; assay: Annexin V inhibition of coaguligand-induced thrombosis in vivo; parameters: species or system mouse
# Method: The ability of Annexin V to inhibit coaguligand-induced thrombosis in vivo was examined in L540 Hodgkin-bearing SCID mice. Tumors were grown in mice and two mice per group (tumor size 0.5 cm in diameter) were injected intravenously via the tail vein with one of the following reagents: a) saline; b) 100 μg of Annexin V; c) 40 μg of anti-VCAM-1·tTF; d) 100 μg of Annexin V followed 2 hours later by 40 μg of anti-VCAM-1·tTF.
# Four hours after the last injection mice were anesthetized and perfused with heparinized saline. Tumors were removed, fixed with 4% formalin, paraffin-embedded and stained with hematoxylene-eosin. The number of thrombosed and non-thrombosed blood vessels was counted and the percentage of thrombosis was calculated.
# [3] = Serum dependence of binding to PS
# Method: The serum dependence or independence of the antibodies is also set forth in Table 2 (see also, Example XXX).
# The 1B9, 2G7 and 7C5 antibodies behave essentially the same. These antibodies recognize only PS and require serum or serum proteins for binding to PS. The binding of 1B9, 2G7 and 7C5 to various phospholipids in the present example was assayed only in the presence of 10% bovine serum, whereas binding of the other antibodies was tested either in the absence or in the presence of serum.
# [4] = Anti-PS ELISA; assay type: binding
# Method: The anti-PS ELISA used in the present studies example is conducted as follows. Unless particular differences are specified, this is the format of the ELISA used throughout the studies of the present application.
# The ELISA of the present example is exemplified using the antigen PS (P-6641 25 mg 10 mg/ml (solvent is Chloroform:MeOH 95:5) in 2.5 ml bottle). Other phospholipids can be used using the same protocol. The PS (or other phospholipids) stock solution should be aliquoted and stored in an airtight container at −30° C. The preferred 96 well plates are Dynatech U bottom Immulon 1 (from Dynatech Labs, Cat#011-010-3550).
# The standard blocking buffer used in the present example is 10% bovine serum dissolved in PBS. Other blocking solutions are suitable, but any detergents should be excluded from block and wash solutions. The primary antibody is the test sample or admixture. […] The developing solutions are: 10 ml of 0.2M Na2PO4, 10 ml of 0.1M citric acid, one 10 mg tablet of OPD, and 10 μl of hydrogen peroxide. The stop solution is 0.18 M H2SO4.
# The protocol of the present example entails coating 96-well plate with PS as follows: dilute the PS stock solution in n-hexane to 10 μg/ml and mix well. Add 50 μl to each well and allow this to evaporate for one hour. Add 200 μl of 10% serum (or other blocking buffer) to each well, cover and maintain at room temperature for 2 hours or overnight at 4° C. Wash the plate three times with PBS. Add the primary antibody (dilute in blocking buffer) and incubate for 2 hours at 37° C. Wash three times with PBS. […] Wash the plate three times with PBS. Develop the ELISA by adding 100 μl of developing solution to each of the wells, develop for 10 minutes, then add 100 μl of stop solution to each plate and read the O.D. at 490 nm.
# [5] = test system: bEnd.3 cells; assay: Growth of bEnd.3 cells in vitro; assay type: cell-based, mouse; settings: 20 μg to 40 μg total IgG per well; 48 and 96 hours
# Method: 20% DMEM alone (control) or 20% DMEM containing the antibodies (20 μg to 40 μg total IgG per well) was added 4 hours after seeding. Each clone was tested on two separate plates in triplicates. Cells were detached 48 and 96 hours later, the cell count was determined in each well and the average cell number per treatment was calculated.
# [6] = test system: tumors; assay: 3G4 in syngeneic and xenogeneic tumor models (overall); assay type: in vivo; settings: 100 μg i.p. 3 times a week
# [7] = mouse, in vivo, iv
# [8] = test system: orthotopic MDA-MB-231 tumors; assay: 3G4 tumor treatment and histology; assay type: in vivo, mouse
# Method: The general protocol for the animal tumor treatment studies is conducted as follows. Unless particular differences are specified, this is the protocol used throughout the studies of the present application.
# For the syngeneic model, Meth A mouse fibrosarcoma tumor cells were used. In one xenogeneic model, human MDA-MB-231 breast tumor cells were seeded into the mammary fat pad. In another xenogeneic model, a large human Hodgkin's lymphoma L540 xenograft was established by injecting cells and allowing the tumor to grow to a size of over 500 mm^3 before treatment. […] Treatment was repeated 3 times a week. Animals were monitored twice a week for tumor measurements.
# Groups of 8-10 female SCID mice were injected subcutaneously with 2×10^7 L540 cells or orthotopically with 1×10^7 MDA-MB-435 or MDA-MB-231 cells. BALB/c mice were injected subcutaneously with 1×10^6 Meth A cells. Tumors were allowed to grow to an average diameter of 0.8-1 cm (L540), 0.6-0.7 cm (MDA-MB-435), 0.5-0.7 cm (MDA-MB-231), or <0.1 cm (Meth A). […] Animals were monitored three times a week for tumor size and body weight. Mice were sacrificed when tumors in control mice reached a diameter of 1.5-2 cm.
# [9] = test system: drug-resistant breast tumors; assay: 3G4 and cisplatin against drug-resistant breast tumors; assay type: in vivo, mouse; settings: treated after day 20
# Description: Mice were inoculated with drug-resistant breast tumors and treated after day 20.
# [10] = test system: RSV long strain; assay: RSV plaque assay after antibody treatment; settings: MOI of 1
# [11] = MW used for conversion: IgM 900 kDa, IgG 150 kDa, Annexin V 36 kDa, read-out: EC50
molecule,measurement,setting,value
Annexin V: High affinity PS binding ligand; natural ligand binding anionic phospholipids and PE,Relative Strength of Reactivity on ELISA,[1],PS = PE = PI = PA > CL > PG
same,coaguligand-induced intravascular thrombosis and changes in tumor cell morphology,[2]; 100 μg Annexin V 2 hours before 40 μg coaguligand,completely abolished
same,tumor morphology,[2]; 100 μg Annexin V alone,did not alter tumor morphology
same,Serum cofactor?,[3],No
same,EC50,[4]; [11],2.77 nM
same,EC50,[4]; dilutions of tissue culture supernatants,0.100 µg/mL
same,Affinity vs. 3SB (−fold increased),[4]; from EC50 in nM,0.18 fold
same,Binding vs. 3SB (−fold increased),[4]; from EC50 in μg/ml,4.68 fold
B1,binding specificity profile,[1],PS=PA=PI=PG>CL>>PE
same,inhibition of growth of bEnd.3 cells,[5],particularly effective
same,toxicity in tumor-bearing mice,[6],No toxicity was observed
same,Volume of distribution,[7],0.1 L/kg
same,half-life in the α-phase of clearance,[7],3 h
same,half-life in the β-phase of clearance,[7],120 h
same,Serum cofactor?,[3],"β2-glycoprotein I and Yes,"
same,mean number of CD-31 positive vessels per square millimeter,[8]; BBG3-treated: 160±20,50±15 per square millimeter
same,reduction in total tumor plasma volume vs BBG3,[8]; FITC-dextran plasma marker,60%
same,mice with long-term complete remissions,[8]; MDA-MB-231 tumors,30%
same,vessels with disintegration of vascular endothelium,[8]; histological examination,about 50%
same,reduction in tumor vascularity,"[8]; mouse, in vivo",about 70%
same,reduction in microvascular density,[8]; treated vs. untreated mice,70%
same,EC50,[4]; [11],0.266 nM
same,anti-tumor response,[9],tumor growth was slowed
same,decrease in viral titer,[10],2 log10
